Assay results as given in publication PMC4766470.

Experiments:
[1] = target: neurotensin receptor 1 (wild type), expressed in Sf9 insect cells (rat) (UniProt P20789); assay: radioligand binding; saturation binding; diluted Sf9 membranes with [3H]-labelled ligand at 30-0.02 nM, 4 °C, 2 h, 50 mM Tris-HCl pH 7.4, 1 mM EDTA, 0.1% BSA; nonspecific binding with 1000-fold excess of unlabelled ligand; filtration; apparent constants
[2] = target: NTR1-Y06, expressed in Sf9 insect cells (rat) (UniProt P20789); assay: as above

Kd [1]: 3 nM
Kd [2]: 3 nM
Substance: [3,11-tyrosyl-3,5-3H(N)]-neurotensin (peptide)
